Consider one protein from publication PMC4399498 (Nature communications, 2014).

The data set deals with the molecule itself. Put plainly: crystal structure.

B1: KdpE-E216A (natural protein, E. coli, UniProt P21866 1-225, looked up)
chain: MTNVLIVEDEQAIRRFLRTALEGDGMRVFEAETLQRGLLEAATRKPDLIILDLGLPDGDGIEFIRDLRQWSAVPVIVLSARSEESDKIAALDAGADDYLSKPFGIGELQARLRVALRRHSATTAPDPLVKFSDVTVDLAARVIHRGEEEVHLTPIEFRLLAVLLNNAGKVLTQRQLLNQVWGPNAVEHSHYLRIYMGHLRQKLEQDPARPRHFITATGIGYRFML
In the case of B1, the binding result is listed as “binds”.
